# Where two headings read alike, the source gives them in different places.
# Key:
# Grb2 SH2 domain protein = target: T1, Grb2 SH2 domain protein (Homo sapiens, UniProt P62993); assay: Biosensor (Biacore S51 surface plasmon resonance) direct binding to chip-bound Grb2 SH2 domain protein; settings: binding affinity to Grb2 SH2 domain protein, complex binding kinetics
# T1 construct: made in house
# Protocol: Biosensor Analysis: Binding experiments were performed on a Biacore S51 instrument (Biacore Inc., Piscataway N.J.). All Biotinylated Grb2 SH2 domain proteins (b-Grb2) were expressed and purified (Protein Expression Laboratory and The Protein Chemistry Laboratory, SAIC—Frederick). The b-Grb2 was immobilized onto carboxymethyl 5′ dextran surface (CM5 sensor chip, Biacore Inc.) by amine coupling. The lyophilized b-Grb2 was reconstituted in fifty percent DMSO in H2O to make a stock solution of 1 mg/mL and stored at −80° C. A 1: 12.5 dilution of b-Grb2 was used for immobilization, by dilution in acetate buffer pH-5.0, with 5% DMSO. 1×PBS (phosphate buffered saline, pH 7.4) was used as the running buffer.
# An immobilization wizard was used to optimize the immobilization target. For b-Grb2, 2500-5000 resonance units (RU) of protein were captured on the CM5 sensor chip. Small molecules were serially diluted in running buffer to the concentrations (1.25 nM-1500 nM) as indicated in each sensorgram and injected at 25° C. at a flow rate of 30 μL/min for 2 minutes. Varying concentrations of small molecules were injected in increasing concentrations, and every injection was performed in duplicate within each experiment. […]
# [1] = target: Biotinylated Grb2 SH2 domain protein (UniProt P62993); assay: SPR (Biacore S51), steady state, compound injected over immobilized b-Grb2 SH2 domain
# Biotinylated Grb2 SH2 domain protein, sequence (P62993 60-152 limits assumed): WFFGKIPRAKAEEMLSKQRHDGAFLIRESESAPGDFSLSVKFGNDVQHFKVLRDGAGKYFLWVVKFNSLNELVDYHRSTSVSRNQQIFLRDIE
# T1 sequence (P62993 60-152 limits assumed): as above
Compound,"Kd (Grb2 SH2 domain protein; first of two Kd values, read-out: Kd (complex binding kinetics, first value)) [nM]","Kd (Grb2 SH2 domain protein; second of two Kd values, read-out: Kd (complex binding kinetics, second value)) [nM]",Kd [1] [nM]
NC(=O)CC1NC(=O)C2(CCCCC2)NC(=O)[C@@H](CC(=O)O)[C@@H](c2ccc(CP(=O)(O)O)cc2)/C=C/CCC2(CCCCC2)CNC1=O (some centres unmarked) [compound 24],9.3 ± 0.1,21300 ± 500,–
"Cyclo{[(2R,3R)-3-(4-dihydroxyphosphonomethyl)phenyl-2-(hydroxycarbonylmethyl)pent-4-enyl]-Ac6c-L-Asn-D-AllylGly}-(1-naphthyl)methyl amide (4) (peptide)",–,–,54.9
"Cyclo{[(2R,3R)-3-(4-dihydroxyphosphonomethyl)phenyl-2-(hydroxycarbonylmethyl)pent-4-enyl]-Ac6c-L-Asn-L-AllylGly}-(1-naphthyl)methyl amide (3) (peptide)",–,–,22.7
[(2R)-3-(4-Dihydroxyphosphonomethyl)phenyl-2-(hydroxylcarbonylmethyl)propionyl]-Ac6c-L-Asn-Gly-(1-naphthyl)methyl amide (2) (peptide),–,–,5610
